From article PMC12583548 (Nature Communications, 2025)
Where “and” joins values, the source holds several entries; their conditions need not be identical. Identical values can stand only once.

How the values were obtained:
[1] = biological target: HAstV1 capsid spike domain, Avitag-biotinylated (human astrovirus 1 (HAstV1), UniProt O12792 433-645, biotin on the Avitag); assay: BLI; biosensors loaded with biotinylated HAstV1 spike (streptavidin, as in Fig. 1a); human or mouse FcRn in solution, 500, 250, 125, 62.5 nM; pH 7.0 (0.1 M sodium phosphate, 150 mM NaCl, 0.05% Tween-20), 25 °C; 1:1 model; average of three replicates; conditions: both partners purified
[2] = biological target: T1, neonatal Fc receptor (FcRn), recombinant human ectodomain heterodimer of FcRn α-chain and β2 microglobulin, … (human, UniProt P55899;P61769, biotin on the AviTag (where FcRn was loaded on streptavidin biosensors)); assay: BLI; HIS1K biosensors loaded with 10x histidine-tagged spike, FcRn in solution at 1000, 500, 250, 125 and 62.5 nM; pH 7.0 buffer, 25 °C; 1:1 model; conditions: both partners purified
T1 construct: also called human FcRn; wild-type FcRn; source: CHO-S, electroporated, purified from the medium (StrepTrap XT); not shown: AviTag, C-terminal, kept

[3] = biological target: T1, neonatal Fc receptor (FcRn), …; assay: BLI; HAstV1 spike loaded, FcRn mutants in solution at 500, 250, 125, 62.5 and 31.25 nM; pH 7.0; 1:1 model; conditions: both partners purified
[4] = biological target: T2, human FcRn mutant T149N_G151T (ectodomain heterodimer with β2M) (human, UniProt P55899 24-297; P61769 21-119, T149N | G151T); assay: as above; conditions: both partners purified
T2 construct: signal peptide in the construct; ectodomain of the FcRn α-chain (FCGRT gene), Met1-Ser297 of UniProt P55899; β-2-microglobulin, Met1-Met119 of UniProt P61769; The change brings in the N-linked glycosylation site of mouse FcRn; source: CHO-S, electroporated, purified from the medium (StrepTrap XT)

[5] = biological target: T3, human FcRn mutant D153E (ectodomain heterodimer with β2M) (human, UniProt P55899 24-297; P61769 21-119, D153E); assay: as above; conditions: both partners purified
T3 construct: signal peptide in the construct; ectodomain of the FcRn α-chain (FCGRT gene), Met1-Ser297 of UniProt P55899; β-2-microglobulin, Met1-Met119 of UniProt P61769; source: CHO-S, electroporated, purified from the medium (StrepTrap XT)

[6] = biological target: T1, neonatal Fc receptor (FcRn), …; assay: BLI; streptavidin biosensors loaded with Avitag-biotinylated spike, FcRn in solution (500-62.5 nM for the wild type); pH 7.0 (0.1 M sodium phosphate, 150 mM NaCl, 0.05% Tween-20), 25 °C; 1:1 model; conditions: both partners purified
[7] = biological target: T1, neonatal Fc receptor (FcRn), …; assay: BLI; streptavidin biosensors loaded with Avitag-biotinylated spike, FcRn in solution (500-62.5 nM for the wild type); pH 5.0 (0.1 M sodium acetate, 150 mM NaCl, 0.05% Tween-20), 25 °C; 1:1 model; conditions: both partners purified
[8] = biological target: the molecule itself; assay: crystal structure; FcRn-HAstV1 spike complex, tags removed, 3.4 Å; hanging drop, 0.1 M NaCl, 0.1 M Bis-Tris:HCl pH 6.1, 1 M ammonium sulfate
[9] = biological target: T4, neonatal Fc receptor (FcRn), recombinant ectodomain heterodimer of FcRn α-chain and β2 microglobulin (human, UniProt P55899 24-297; P61769 21-119); assay: BLI; streptavidin biosensors loaded with Avitag-biotinylated HAstV1 spike K467H (3 ug/mL), dipped into FcRn (2000 nM in the shown replicate); pH 7.0 (0.1 M sodium phosphate, 150 mM NaCl, 0.05% Tween-20); 25 °C; 1:1 binding model; triplicate; conditions: both partners purified
T4 construct: signal peptide in the construct; ectodomain of the wild-type FCGRT gene (FcRn α-chain), human, UniProt P55899, Met1-Ser297; followed by a C-terminal thrombin cleavage site before the tags; β-2-microglobulin (β2M), human, UniProt P61769, Met1-Met119; Tags were removed with thrombin only for crystallization; nothing is said of their removal for BLI; also called human FcRn; wild-type FcRn; source: …

[10] = biological target: T4, neonatal Fc receptor (FcRn), …; assay: BLI; streptavidin biosensors loaded with Avitag-biotinylated HAstV1 spike K467H, dipped into FcRn; pH 5.0 (0.1 M sodium acetate, 150 mM NaCl, 0.05% Tween-20); 25 °C; 1:1 binding model; triplicate; conditions: both partners purified

B1: recombinant mouse FcRn (receptor)
chain 1: SETRPPLMYHLTAVSNPSTGLPSFWATGWLGPQQYLTYNSLRQEADPCGAWMWENQVSWYWEKETTDLKSKEQLFLEALKTLEKILNGTYTLQGLLGCELASDNSSVPTAVFALNGEEFMKFNPRIGNWTGEWPETEIVANLWMKQPDAARKESEFLLNSCPERLLGHLERGRRNLEWKEPPSMRLKARPGNSGSSVLTCAAFSFYPPELKFRFLRNGLASGSGNCSTGPNGDGSFHAWSLLEVKRGDEHHYQCQVEHEGLAQPLTVDLDSSARSS
chain 2: IQKTPQIQVYSRHPPENGKPNILNCYVTQFHPPHIEIQMLKNGKKIPKVEMSDMSFSKDWSFYILAHTEFTPTETDTYACRVKHASMAEPKTVYWDRDM
Kd [1]: 58 nM | koff [1]: 0.003 s⁻¹ | kon [1]: 52000 M⁻¹ s⁻¹

B2: HAstV1 capsid spike domain, 10x histidine-tagged (domain or fragment)
chain: KVVLTFGAPMSPNANNKQTWVNKPLDAPSGHYNVKIAKDVDHYLTMQGFTSIASVDWYTIDFQPSEAPAPIQGLQVLVNISKKADVYAIKQFVTAQTNNKHQVTSLFLVKVTTGFQVNNYLSYFYRASATGDATTNLLVRGDTYTAGISFTQGGWYLLTNTSIVDGAMPPGWVWNNVELKTNTAYHMDKGLVHLIMPLPESTQMCYEMLTSIP
notes: capsid spike domain of the HAstV1 capsid protein (ORF2), UniProt O12792; also called HAstV1 spike; WT; source: E. coli T7Express, purified (HisPur cobalt resin); not shown: His10, C-terminal, kept
Kd [2]: 270 nM | koff [2]: 0.014 s⁻¹ | kon [2]: 52000 M⁻¹ s⁻¹ | Kd [3]: 230 nM | Kd [4]: 500 nM | Kd [5]: 1600 nM

B3: HAstV1 capsid spike domain, Avitag-biotinylated (domain or fragment)
chain: KVVLTFGAPMSPNANNKQTWVNKPLDAPSGHYNVKIAKDVDHYLTMQGFTSIASVDWYTIDFQPSEAPAPIQGLQVLVNISKKADVYAIKQFVTAQTNNKHQVTSLFLVKVTTGFQVNNYLSYFYRASATGDATTNLLVRGDTYTAGISFTQGGWYLLTNTSIVDGAMPPGWVWNNVELKTNTAYHMDKGLVHLIMPLPESTQMCYEMLTSIP
modifications: biotin on the Avitag
notes: capsid spike domain of the HAstV1 capsid protein (ORF2), UniProt O12792; it may carry a further tag for the cobalt resin; also called biotinylated HAstV1 spike; Avitag-biotinylated HAstV1 spike; source: E. coli T7Express, purified (HisPur cobalt resin)
Kd [6]: 188 nM | Kd [7]: 102 nM

B4: HAstV8 capsid spike domain, 10x histidine-tagged (domain or fragment)
chain: GEQFRVLLTVGPPMAPNTANSQNWVNKTIVPPENQYTVKIGIDLEHYTTMQGFTPVESVSWYTADFQPSDEPSPIPGLYARVNNTKKADVYGVQQFKSSHTNNRHQITSVFLVRVTTSFQVINYTSYFIRGAESGSNVSNLKIRDQTYHTPLQFTQGKWYLLTSTVMHDGPTSSGWVWMNQELTNNIAYRVDPGMMYLITPPPAASQLYFELHTVLPQA
notes: capsid spike domain of the HAstV8 capsid protein (ORF2); also called HAstV8 spike; source: E. coli T7Express, purified (HisPur cobalt resin); not shown: His10, C-terminal, kept
Kd [2]: 390 nM | koff [2]: 0.03 s⁻¹ | kon [2]: 76000 M⁻¹ s⁻¹

B5: HAstV1 capsid spike domain, tag removed with thrombin (domain or fragment)
chain: KVVLTFGAPMSPNANNKQTWVNKPLDAPSGHYNVKIAKDVDHYLTMQGFTSIASVDWYTIDFQPSEAPAPIQGLQVLVNISKKADVYAIKQFVTAQTNNKHQVTSLFLVKVTTGFQVNNYLSYFYRASATGDATTNLLVRGDTYTAGISFTQGGWYLLTNTSIVDGAMPPGWVWNNVELKTNTAYHMDKGLVHLIMPLPESTQMCYEMLTSIP
notes: capsid spike domain of the HAstV1 capsid protein (ORF2), UniProt O12792; Form used for the SEC complex and the crystal; also called HAstV1 spike; source: E. coli T7Express, purified (HisPur cobalt resin), tag removed with thrombin, SEC; not shown: His10, C-terminal, cleaved
stoichiometry N [8]: 2

B6: HAstV1 capsid spike mutant K467H, Avitag-biotinylated (domain or fragment)
chain: KVVLTFGAPMSPNANNKQTWVNKPLDAPSGHYNVHIAKDVDHYLTMQGFTSIASVDWYTIDFQPSEAPAPIQGLQVLVNSSKKADVYAIKQFVTAQTNNKHQVTSLFLVKVTTGFQVNNYLSYFYRASATGDATTNLLVRGDTYTAGISFTQGGWYLLTNTSIVDGAMPPGWVWNNVELKTNTAYHMDKGLVHLIMPLPESTQMCYEMLTSIP
modifications: biotin on the Avitag
notes: also called HAstV1_K467H spike; HAstV1 spike K467H; source: T7Express E. coli, purified (HisPur cobalt resin); not shown: Avitag, C-terminal, kept
Kd [9]: 19200 nM and 21500 nM and 26800 nM | koff [9]: 0.239 s⁻¹ and 0.259 s⁻¹ and 0.236 s⁻¹ | kon [9]: 12500 M⁻¹ s⁻¹ and 12000 M⁻¹ s⁻¹ and 8800 M⁻¹ s⁻¹ | Kd [10]: 447 nM and 869 nM and 1040 nM | koff [10]: 0.033 s⁻¹ and 0.0561 s⁻¹ and 0.0625 s⁻¹ | kon [10]: 73900 M⁻¹ s⁻¹ and 64500 M⁻¹ s⁻¹ and 60200 M⁻¹ s⁻¹
